Experimental data from publication PMC4175982.

Target: GrpU protein from Clostridiales bacterium 1_7_47FAA (Clostridiales bacterium 1_7_47FAA)
Experiment: crystal structure

**Q.** How did the stoichiometry N turn out when “GrpU protein from Clostridiales bacterium 1_7_47FAA (natural protein)” was run?
**A.** The stoichiometry N was 6.
